Measurements reported in the DeepSol protein solubility set.

experiment: soluble on expression in E. coli; label from the status in PepcDB or PDB records

| Sequence | soluble on expression in E. coli |
| --- | --- |
| MAKNHYDILRRHIRSEDLLETPEFGSGSRIVEEYWIQEPFTKAIIVENEDEFRNVYYALEPTVSSEEAEVISALYDDLKKILVLQDVSVDLEERAEVLVRAIEKLSKEYAVSFTDNFYSRMLYYLFRDFFGYGLIDPLMEDTNVEDISCDGYNIPIFIYHQKYGNVETNIVLDQEKLDRMVLRLTQRSGKHISIANPIVDATLPDGSRLQATFGTEVTPRGSSFTIRKFTIEPLTPIDLIEKGTVPSGVLAYLWLAIEHKFSAIVVGETASGKTTTLNAIMMFIPPDAKVVSIEDTREIKLYHENWIAEVTRTGMGEGEIDMYDLLRAALRQRPDYIIVGEVRGREAQTLFQAMSTGHASYSTLHAGDINQMVYRLESEPLKVPRSMLQFLDIALVQTMWVRGNTRLRRTKEVNEILGIDPVDKNLLVNQFVKWDPKEDKHIEVSMPKKLEKMADFLGVSVQEVYDEMLSRKRYLELMLKRGIRNYKEVTRYIHAYYRNPELAMTKMEEGL | soluble |
| MKTLGEFIVEKQHEFSHATGELTALLSAIKLGAKIIHRDINKAGLVDILGASGAENVQGEVQQKLDLFANEKLKAALKARDIVAGIASEEEDEIVVFEGCEHAKYVVLMDPLDGSSNIDVNVSVGTIFSIYRRVTPVGTPVTEEDFLQPGNKQVAAGYVVYGSSTMLVYTTGCGVHAFTYDPSLGVFCLCQERMRFPEKGKTYSINEGNYIKFPNGVKKYIKFCQEEDKSTNRPYTSRYIGSLVADFHRNLLKGGIYLYPSTASHPDGKLRLLYECNPMAFLAEQAGGKASDGKERILDIIPETLHQRRSFFVGNDHMVEDVERFIREFPDA | soluble |
| MNFIYPAVIAAVQEGEKAWGTTHPNPPVGAVVLSSNGSIVGRGHTQPPGGSHAEIMALRQAGENTKGGTLVVTLEPCNHWGRTGPCSHAISESGIEHVVYLMQDTGSLEKGGAEYLRRQGLKVTFLGLSVAALIPWQASKDRGWPYVVGKTAHTLDGFVAAEDHSSKWITGSASRDYANRQRRHFDAIIVGTGTVKADNPALTARKDDGTLLPHQPLKVVIGTSKISEGTQLARSGFVQFSTIEEALVQLWDRGVRYVLVEGGPHLLHGFLTSGNLDQLHSYSAPMLLTRGVSLLQEEEKKSAESANTTIASALRGSPQSISMLGDDILQVINI | not soluble |
| MSSKYNSLKLVKVKNVGDFVYKVSLNRPSKFNALNMVIWKEIGDCFQLIDEDPECRVVILQGEGKHFCSGLDLSEVTFLNGEEADDSARRGRSILRTIKFMQKQFTYIDECSKPVILAMHGYCLGAALDIATACDVRVATKDAVLSVKEVDIGMAADVGTLNRLPKIVGNHSWIKDISLSARHFSAGEALQFGLLSRVYDTREEMINEVLKMAKLIALKSPVGVQGTKNALNYARDHTVENSLNYVATWNMSQLFTDDIMKASMASLSKQPTPPFSKL | not soluble |
| SSDLGSEELEEEGENDLGEYEGERNELGERHGHGKARLPNGDTYEGNYESGKRHGQGTYKFKNGARYVGDYVKNKKHGQGTFVYPDGSRYEGEWADDQRHGHGVYYYVNNDTYTGEWFNHQRHGQGTYFYAETGSKYVGTWVHGQQEGAAELIHLNHRYQGKFINKNPVGPGKYVFDVGCEQHGEYRLTDVERGEEEEEEETLVSIVPKWKALKITELALWTPTLSEEHPPAEGQGQEEVQGATGAGEPSDDIQAEGFEVDAEPRTGEEDIDFRQESQENSYDLDQGNPNFDEEQLDLQE | soluble |
| MVRLEDYGTWDEALKRLEASRKALLALLREADPAWLSAPLREGAWTPLMVAEHVALVEDSTARVLRRLRRLAAGENLPPVPVKPGEFKDGKPQAPEGVRPKGGLSLEEVLALLDRARAFLLEEVAKADPQNPATFPHPFFGELNPLGWLRAAAYHEAHHLKALQASLPR | soluble |
| MLWNVDLLKTLNIMYNKILFMNNSFFGRFKKNDNQVIEEQPPVWEDRIFWVETLQKIAFPVLNNLKKESLKKNMSIESFSSESNKFAHLGAFSNVFNGIAPWLELGPDESEEGKIREKYIVLTLKAISNAVNPNSKDYILFTEPKQSLMSMALFAQGLLRSKTQIWNNLPMDVQARVIYELKNTRIIAPFENHWLLFTSMIEATLLEFTGECDRERLTYSIRKFRDEWYLGDAIYADGPEFDVNYYNSIFIHPMLNDILKVMRKYGINEGELLDVQLMRSSRYASQLERIISPEGTYPLLGKSMAYRTGIFHLLAQAALFKILPRNMETSQVRSALTKVLRTQFGGHQNFDNKGWLTIGLNGCQAEIAEKDINTGSLYGCCAIFLPLGLSFNDSFWVGPFEEWTTLKAWNGNPVEPDQSIDFLEHHHHHH | not soluble |
| MGLERFNGVRVDDAERALLTCCRSLRWARRVADHRPYPDLDALLAAADEAAYDLAPADLAEALAGESLTLLPDDAYSVAHTALSAAHAAYESRFGHVFVICLDNAPPGEALDQVLAGIRSRLTNDREEERVLAAEELRRLARGRLARLVRDFSPRPALQRTPLEHHHHHH | not soluble |
| MNIFNNVKKAEIHVHLEATITPSICKKFADRNNHEIPDDFFGSKYAYEWDDFYDFLKKYDIVTSVIHTPEDYYELTYEYLKECAANNVIYMEAMISSTHAKNKGMTYHSFIEGVYEASKKAEEDFGIVARYIMNGIRHLGPESVQNTAEEVLKNPHPCLVGFGLAGDELHFPPNLFVKTFDMLKEANFPITVHAGEWDGPENIRNAINLLHPTRLGHGVRSIEDPELVKEIIDKDIILETCPTSNIATKIYEDYESHPVKTLFNQGVKVTVNSDDPPFFMQLFQ | soluble |
| MMLAISEIRKHPDGLSFDRLCDVKSMLLERDQQIIDIKAVKAVGNVRYDKGLYLLDYQLSYEVILPSSRSMVPVCLSEVQHIQELFIEATDLADKKELVEDNLVLVLDKDAINLEESIVDNILLAIPVQVLTEEEKKSKELPAGQNWAVLTEEDYQCLKEEKQKENNPFASLQGLFDE | not soluble |
| RPQGLHLELETRLQKMYGIRQVIVVEATEPDDEESIKQAIGSAAAHYLETSLSAQDHIGISSWSSTIRAMVSHMHPQPGKQSAQEVVQLLGGVGNKGAFEATLLTQRLATLLNCPAFLLPSQSIEQSVESKQRIVEMEEVKEVLHRFDSITLAIVGIGELEPSQLLRNSGNYYTEDMLRVLAERGAVGDICLRYFDAQGKPVLEEDEEFVVSMGLGKLRSINRVLGLAGGVRKVQAIKGALLGGYLDVLITDVGTARGLGG | soluble |
| MPHFYEYLEFNRDEDREHQLDVYVGVQLEADTIAKITALETASEWLIMAEPYCPDCVEVVAYFQRISQLNPAINVKYVARKDNTQRHYFDSDRQQQAVIAVEKIPAIFNISSAETELVLAEFPAFLKAEMAEHPMQFDALKADFRMGKFGKRLEAELVEILTR | not soluble |
| MSLDSWNVLIADDEIIIREGIRDAINWSELQLTVVAEAEDGEEALELALEHQVDILLADLNMPIMNGLTLIKQLRTALPHCKVIIITGHDEFVYAQEAIRLSVVDYIIKPVDADQLYEVLKKVCIELTEGQNRKREETFTAKQLEKNITLLREQFCSNWVMGALTNEEVAEQLSFLQLPDTLPSFIGVIRCLNRLHLVGEGHHHHHH | soluble |
| MTLTEQPQRIAILHSLYLEYFLALGTPPIASAGASTGDAMKALGEWETLKPYAGTAKIIDLGSARDLNLEAILGANPDVIVTFKGQGNLDKIYEQLEQIAPVILVDFSAPWQEQILACAEIVNKEADAQKLIKEIEDSVQSAKEKLSRLEHHHHHH | not soluble |
| MGSDKIHHHHHHMSEYIQLYRYLNSRLPGVERKRLVLLTGARQTGKTTLAKAKYADLRYVNLDAPENREAVRTIASAFWARDIGPAVLDEAQKEPVVFDKVKYAYDDGALSFSVLLGSSQILLLKKIRETLAGRISIYELWPLLMSEICNGSAAPPSSPPLVDCLFSDMTCDDFFGDKPGILLDMEDACRRRAEEHLLQWGGMPSLLPLNTEERRQWLKDYGYTYLERDMADLARLEDLMPFRKFQRLAALRSGCLLNYSELARDAAISVDTARRYLEYLRLSYQTVFLPPYHVNLTSAVVKTPKVYWLDVGLLRQLSGMQGPTTGEIYETMVVGELMKWMKTAGREGDVFFYRTRSGLEVDVLLETPSGVVGMEIKSRRVLAARDLTGLKEIALALGPRWRGGLVIYQGDELKRIGTPQLWAVPSRRLFTGIE | not soluble |
| MSPVEAALETLAHTMGITVIETSKLGSTLNACFHPPTQTIFIKIGLDPVTRRCAIAHELGHAHYGHNCSTPGAERQADEWAAQQLLDVGDVEAVGLECEGSAAAMAAELGVTPHLLVLWMGMYERGRIQPEKRAC | not soluble |
| ENLGATVIPASTGNTEKHVRLIRDLGITGIACTPSYALYLAEVVERMGLTKNDINLRIGAFGAEPWTESMRKEIEERLGLKGYNIYGLSEIMGPGVSYECQEQH | not soluble |
| MADPWQECMDYAVTLAGQAGEVVREALKNEMNIMVKSSPADLVTATDQKVEKMLITSIKEKYPSHSFIGEESVAAGEKSILTDNPTWIIDPIDGTTNFVHGFPFVAVSIGFVVNKKMEFGIVYSCLEDKMYTGRKGKGAFCNGQKLQVSHQEDITKSLLVTELGSSRTPETVRIILSNIERLLCLPIHGIRGVGTAALNMCLVAAGAADAYYEMGIHCWDVAGAGIIVTEAGGVLLDVTGGPFDLMSRRVIASSNKTLAERIAKEIQIIPLQRDDED | soluble |
| MSLNRDKPLKVMLVAAEASGDALGAGLAKALRARLGQGVTFVGIGGAKMAEQGVQSPFDIAQLSILGILESLKAYPRAMARLKDTVALAAREKPDVAVLIDSWGFNIRLAHALRRLDPTLPLVKYVAPQVWAYREGRAQALAKAVDLLLSIQPMDKAYFDAAGLQNVFVGNSALAKRFDHADPGRLRAAIGAAASQQILLVLPGSRPSEIERVMPAFEDAVRRLKVERPDLHIVVPAAYTVAEAVKARVAGWPFRAHVIEDEGLKDDAFLAGDVALACSGTVTTELALAGRPMVVGYKTGAVTYAIVKRLMKPRWITLFNIAAGKAVAPELIQHACEGEGLAREVALRLDDPDLRQRQTAEQYAALDRMGRGMPDPSEAAAEALLDFLSARGALGREGHHHHHH | not soluble |
| GSGYREVEYWDQRYQGAADSAPYDWFGDFSSFRALLEPELRPEDRILVLGCGNSALSYELFLGGFPNVTSVDYSSVVVAAMQACYAHVPQLRWETMDVRKLDFPSASFDVVLEKGTLDALLAGERDPWTVSSEGVHTVDQVLSEVSRVLVPGGRFISMTSAAPHFRTRHYAQAYYGWSLRHATYGSGFHFHLYLMHKGGKLSVAQLALGAQILSP | soluble |
| MSQGFKTEADVMRNTAHRVDDTNQEVSAELSRLRSIVDGVRASWEGTAQVSFDNLMQRWDASAKGLQDALQSISDNIRGNATSFENVEADNQSAFSAVGGQGLAL | not soluble |
| MSLTQFASPVLHSLLDTDAYKLHMQQAVFHHYYDVHVAAEFRCRGDDLLGIYADAIREQVQAMQHLRLQDDEYQWLSALPFFKADYLNWLREFRFNPEQVTVSNDNGKLDIRLSGPWREVILWEVPLLAVISEMVHRYRSPQADVAQALDTLESKLVDFSALTAGLDMSRFHLMDFGTRRRFSREVQETIVKRLQQESWFVGTSNYDLARRLSLTPMGTQAHEWFQAHQQISPDLANSQRAALAAWLEEYPDQLGIALTDCITMDAFLRDFGVEFASRYQGLRHDSGDPVEWGEKAIAHYEKLEIDPQSKTLVFSDNLDLRKAVELYRHFSSRVQLSFGIGTRLTCDIPQVKPLNIVIKLVECNGKPVAKLSDSPGKTICHDKAFVRALRKAFDLPHIKKASEGHHHHHH | soluble |
| MGPLVKEKYEEVEQIPLKKPHIVSLIGGFGYREPIFRKVLTTAALDSGINYTLISGPSLDPSKFKEIPKNVQILRFVGDTFPYIRSSDAVIAPGGHSTMMEALSFGTPILSFPDEGHSEQENNAAVIEEEGYGRMLSYSTPPEVILECIREVLEDKKYRDKVKRLQRLASELDGLEHHHHHH | soluble |
| MELRIFFDGNCPLCSAEMRQLKARDPDDHIELVDLNAENFSSRFSYIDKDYANTILHGETASGQVLLGLDVTCKAWALTGTRPWIQVLRLPLIKPLADWCYLRFAKHRYRISYLLTGKARCDSQCQLPKLEHHHHHH | soluble |
